According to US20140271457A1 (AbbVie / Abbott, published 2014):

B1: DVD3238 (bispecific antibody, IgG1)
VH: EVQLVESGGGLVQPGGSLRLSCAASGFSFSKYWLGWVRQAPGKGLEWVSDIYPGYDYTHYNEKFKDRFTISADTSKNTAYLQMNSLRAEDTAVYYCARSDGSSTYWGQGTLVTVSSGGGGSGGGGSEVQLVQSGAEVKKPGASVKVSCKASGYTFNNYGIIWVRQAPGQGLEWMGWINTYTGKPTYAQKFQGRVTMTTDTSTSTAYMELSSLRSEDTAVYYCARKLFNTVAVTDNAMDYWGQGTTVTVSS
VL: DIQMTQSPSSLSASVGDRVTITCTSSQNIVHSNGNTYLEWYQQKPGKAPKLLIYKVSNRFSGVPSRFSGSGSGTDFTLTISSLQPEDFATYYCFQVSHVPYTFGQGTKVEIKRGGSGGGGSGDIQMTQSPSSLSASVGDRVTITCRASQDIENYLNWYQQKPGKAPKLLIYYTSRLQSGVPSRFSGSGSGTDFTLTISSLQPEDFATYFCQQGNTQPPTFGQGTKLEIKR
B2: DVD3267 (bispecific antibody, IgG1)
VH: EVQLVESGGGLVQPGGSLRLSCAASGFSFSKYWLGWVRQAPGKGLEWVSDIYPGYDYTHYNEKFKDRFTISADTSKNTAYLQMNSLRAEDTAVYYCARSDGSSTYWGQGTLVTVSSASTKGPSVFPLAPEVQLQQSGPELVTPGASVKISCKASGYTFTKYWLGWVKQSHGKSLEWIGDIYPGYDYTHYNEKFKDTATLTVDKSSSIAYMEIRGLTSEDSAVYYCARSDGSSTYWGQGTLVTVSA
VL: DIQMTQSPSSLSASVGDRVTITCTSSQNIVHSNGNTYLEWYQQKPGKAPKLLIYKVSNRFSGVPSRFSGSGSGTDFTLTISSLQPEDFATYYCFQVSHVPYTFGQGTKVEIKRTVAAPDVQMIQSPSSLSASLGDIVTMTCTSSQNIVHSNGNTYLEWFQQKPGKAPKLLIYKVSNRFSGVPSRFSGSRYGTDFTLTISSLEDEDLATYFCFQVSHVPYTFGGGTKLEIKR
B3: DVD3264 (bispecific antibody, IgG1)
VH: EVQLVESGGGLVQPGGSLRLSCAASGFTFSNYGVTWVRQAPGKGLEWVSMIWADGSTHYASSVKGRFTISRDNSKNTLYLQMNSLRAEDTAVYYCAREWQHGPVAYWGQGTLVTVSSASTKGPEVQLQQSGPELVTPGASVKISCKASGYTFTKYWLGWVKQSHGKSLEWIGDIYPGYDYTHYNEKFKDTATLTVDKSSSIAYMEIRGLTSEDSAVYYCARSDGSSTYWGQGTLVTVSA
VL: DIQMTQSPSSLSASVGDRVTITCRASQLVSSAVAWYQQKPGKAPKLLIYWASARHTGVPSRFSGSGSGTDFTLTISSLQPEDFATYYCQQHYKTPFTFGQGTKLEIKRTVAAPDVQMIQSPSSLSASLGDIVTMTCTSSQNIVHSNGNTYLEWFQQKPGKAPKLLIYKVSNRFSGVPSRFSGSRYGTDFTLTISSLEDEDLATYFCFQVSHVPYTFGGGTKLEIKR
B4: DVD3263 (bispecific antibody, IgG1)
VH: EVQLVESGGGLVQPGGSLRLSCAASGFTFSNYGVTWVRQAPGKGLEWVSMIWADGSTHYASSVKGRFTISRDNSKNTLYLQMNSLRAEDTAVYYCAREWQHGPVAYWGQGTLVTVSSGGGGSGGGGSEVQLQQSGPELVTPGASVKISCKASGYTFTKYWLGWVKQSHGKSLEWIGDIYPGYDYTHYNEKFKDTATLTVDKSSSIAYMEIRGLTSEDSAVYYCARSDGSSTYWGQGTLVTVSA
VL: DIQMTQSPSSLSASVGDRVTITCRASQLVSSAVAWYQQKPGKAPKLLIYWASARHTGVPSRFSGSGSGTDFTLTISSLQPEDFATYYCQQHYKTPFTFGQGTKLEIKRGGSGGGGSGDVQMIQSPSSLSASLGDIVTMTCTSSQNIVHSNGNTYLEWFQQKPGKAPKLLIYKVSNRFSGVPSRFSGSRYGTDFTLTISSLEDEDLATYFCFQVSHVPYTFGGGTKLEIKR
B5: DVD3283 (bispecific antibody, IgG1)
VH: EVQLVQSGAEVKKPGASVKVSCKASGYTFANYGIIWVRQAPGQGLEWMGWINTYTGKPTYAQKFQGRVTMTTDTSTSTAYMELSSLRSEDTAVYYCARKLFTTMDVTDNAMDYWGQGTTVTVSSGGGGSGGGGSEVQLQQSGPELVTPGASVKISCKASGYTFTKYWLGWVKQSHGKSLEWIGDIYPGYDYTHYNEKFKDTATLTVDKSSSIAYMEIRGLTSEDSAVYYCARSDGSSTYWGQGTLVTVSA
VL: DIQMTQSPSSLSASVGDRVTITCRASQDISQYLNWYQQKPGKAPKLLIYYTSRLQSGVPSRFSGSGSGTDFTLTISSLQPEDFATYFCQQGNTWPPTFGQGTKLEIKRGGSGGGGSGDVQMIQSPSSLSASLGDIVTMTCTSSQNIVHSNGNTYLEWFQQKPGKAPKLLIYKVSNRFSGVPSRFSGSRYGTDFTLTISSLEDEDLATYFCFQVSHVPYTFGGGTKLEIKR
B6: DVD3284 (bispecific antibody, IgG1)
VH: EVQLVQSGAEVKKPGASVKVSCKASGYTFANYGIIWVRQAPGQGLEWMGWINTYTGKPTYAQKFQGRVTMTTDTSTSTAYMELSSLRSEDTAVYYCARKLFTTMDVTDNAMDYWGQGTTVTVSSASTKGPEVQLQQSGPELVTPGASVKISCKASGYTFTKYWLGWVKQSHGKSLEWIGDIYPGYDYTHYNEKFKDTATLTVDKSSSIAYMEIRGLTSEDSAVYYCARSDGSSTYWGQGTLVTVSA
VL: DIQMTQSPSSLSASVGDRVTITCRASQDISQYLNWYQQKPGKAPKLLIYYTSRLQSGVPSRFSGSGSGTDFTLTISSLQPEDFATYFCQQGNTWPPTFGQGTKLEIKRTVAAPDVQMIQSPSSLSASLGDIVTMTCTSSQNIVHSNGNTYLEWFQQKPGKAPKLLIYKVSNRFSGVPSRFSGSRYGTDFTLTISSLEDEDLATYFCFQVSHVPYTFGGGTKLEIKR
B7: DVD3286 (bispecific antibody, IgG1)
VH: EVQLVQSGAEVKKPGASVKVSCKASGYTFANYGIIWVRQAPGQGLEWMGWINTYTGKPTYAQKFQGRVTMTTDTSTSTAYMELSSLRSEDTAVYYCARKLFTTMDVTDNAMDYWGQGTTVTVSSASTKGPEVQLQQSGPELVTPGASVKISCKASGYTFTKYWLGWVKQSHGKSLEWIGDIYPGYDYTHYNEKFKDTATLTVDKSSSIAYMEIRGLTSEDSAVYYCARSDGSSTYWGQGTLVTVSA
VL: DIQMTQSPSSLSASVGDRVTITCRASQDISQYLNWYQQKPGKAPKLLIYYTSRLQSGVPSRFSGSGSGTDFTLTISSLQPEDFATYFCQQGNTWPPTFGQGTKLEIKRTVAAPSVFIFPPDVQMIQSPSSLSASLGDIVTMTCTSSQNIVHSNGNTYLEWFQQKPGKAPKLLIYKVSNRFSGVPSRFSGSRYGTDFTLTISSLEDEDLATYFCFQVSHVPYTFGGGTKLEIKR
B8: DVD3236 (bispecific antibody, IgG1)
VH: EVQLVQSGAEVKKPGASVKVSCKASGYTFNNYGIIWVRQAPGQGLEWMGWINTYTGKPTYAQKFQGRVTMTTDTSTSTAYMELSSLRSEDTAVYYCARKLFNTVAVTDNAMDYWGQGTTVTVSSASTKGPEVQLVESGGGLVQPGGSLRLSCAASGFSFSKYWLGWVRQAPGKGLEWVSDIYPGYDYTHYNEKFKDRFTISADTSKNTAYLQMNSLRAEDTAVYYCARSDGSSTYWGQGTLVTVSS
VL: DIQMTQSPSSLSASVGDRVTITCRASQDIENYLNWYQQKPGKAPKLLIYYTSRLQSGVPSRFSGSGSGTDFTLTISSLQPEDFATYFCQQGNTQPPTFGQGTKLEIKRTVAAPSVFIFPPDIQMTQSPSSLSASVGDRVTITCTSSQNIVHSNGNTYLEWYQQKPGKAPKLLIYKVSNRFSGVPSRFSGSGSGTDFTLTISSLQPEDFATYYCFQVSHVPYTFGQGTKVEIKR
B9: DVD3237 (bispecific antibody, IgG1)
VH: EVQLVQSGAEVKKPGASVKVSCKASGYTFNNYGIIWVRQAPGQGLEWMGWINTYTGKPTYAQKFQGRVTMTTDTSTSTAYMELSSLRSEDTAVYYCARKLFNTVAVTDNAMDYWGQGTTVTVSSASTKGPSVFPLAPEVQLVESGGGLVQPGGSLRLSCAASGFSFSKYWLGWVRQAPGKGLEWVSDIYPGYDYTHYNEKFKDRFTISADTSKNTAYLQMNSLRAEDTAVYYCARSDGSSTYWGQGTLVTVSS
VL: DIQMTQSPSSLSASVGDRVTITCRASQDIENYLNWYQQKPGKAPKLLIYYTSRLQSGVPSRFSGSGSGTDFTLTISSLQPEDFATYFCQQGNTQPPTFGQGTKLEIKRTVAAPDIQMTQSPSSLSASVGDRVTITCTSSQNIVHSNGNTYLEWYQQKPGKAPKLLIYKVSNRFSGVPSRFSGSGSGTDFTLTISSLQPEDFATYYCFQVSHVPYTFGQGTKVEIKR
B10: DVD3239 (bispecific antibody, IgG1)
VH: EVQLVESGGGLVQPGGSLRLSCAASGFSFSKYWLGWVRQAPGKGLEWVSDIYPGYDYTHYNEKFKDRFTISADTSKNTAYLQMNSLRAEDTAVYYCARSDGSSTYWGQGTLVTVSSASTKGPEVQLVQSGAEVKKPGASVKVSCKASGYTFNNYGIIWVRQAPGQGLEWMGWINTYTGKPTYAQKFQGRVTMTTDTSTSTAYMELSSLRSEDTAVYYCARKLFNTVAVTDNAMDYWGQGTTVTVSS
VL: DIQMTQSPSSLSASVGDRVTITCTSSQNIVHSNGNTYLEWYQQKPGKAPKLLIYKVSNRFSGVPSRFSGSGSGTDFTLTISSLQPEDFATYYCFQVSHVPYTFGQGTKVEIKRTVAAPDIQMTQSPSSLSASVGDRVTITCRASQDIENYLNWYQQKPGKAPKLLIYYTSRLQSGVPSRFSGSGSGTDFTLTISSLQPEDFATYFCQQGNTQPPTFGQGTKLEIKR
B11: DVD3242 (bispecific antibody, IgG1)
VH: EVQLVESGGGLVQPGGSLRLSCAASGFSFSKYWLGWVRQAPGKGLEWVSDIYPGYDYTHYNEKFKDRFTISADTSKNTAYLQMNSLRAEDTAVYYCARSDGSSTYWGQGTLVTVSSASTKGPSVFPLAPEVQLVQSGAEVKKPGASVKVSCKASGYTFNNYGIIWVRQAPGQGLEWMGWINTYTGKPTYAQKFQGRVTMTTDTSTSTAYMELSSLRSEDTAVYYCARKLFNTVAVTDNAMDYWGQGTTVTVSS
VL: DIQMTQSPSSLSASVGDRVTITCTSSQNIVHSNGNTYLEWYQQKPGKAPKLLIYKVSNRFSGVPSRFSGSGSGTDFTLTISSLQPEDFATYYCFQVSHVPYTFGQGTKVEIKRTVAAPDIQMTQSPSSLSASVGDRVTITCRASQDIENYLNWYQQKPGKAPKLLIYYTSRLQSGVPSRFSGSGSGTDFTLTISSLQPEDFATYFCQQGNTQPPTFGQGTKLEIKR
B12: DVD3241 (bispecific antibody, IgG1)
VH: EVQLVESGGGLVQPGGSLRLSCAASGFSFSKYWLGWVRQAPGKGLEWVSDIYPGYDYTHYNEKFKDRFTISADTSKNTAYLQMNSLRAEDTAVYYCARSDGSSTYWGQGTLVTVSSASTKGPEVQLVQSGAEVKKPGASVKVSCKASGYTFNNYGIIWVRQAPGQGLEWMGWINTYTGKPTYAQKFQGRVTMTTDTSTSTAYMELSSLRSEDTAVYYCARKLFNTVAVTDNAMDYWGQGTTVTVSS
VL: DIQMTQSPSSLSASVGDRVTITCTSSQNIVHSNGNTYLEWYQQKPGKAPKLLIYKVSNRFSGVPSRFSGSGSGTDFTLTISSLQPEDFATYYCFQVSHVPYTFGQGTKVEIKRTVAAPSVFIFPPDIQMTQSPSSLSASVGDRVTITCRASQDIENYLNWYQQKPGKAPKLLIYYTSRLQSGVPSRFSGSGSGTDFTLTISSLQPEDFATYFCQQGNTQPPTFGQGTKLEIKR

Target: Recombinant Human TNF-α/TNFSF1A (human, UniProt P01375 77-233)
Assay: cell-based or functional assay

Sequence of Recombinant Human TNF-α/TNFSF1A (P01375 77-233 limits assumed): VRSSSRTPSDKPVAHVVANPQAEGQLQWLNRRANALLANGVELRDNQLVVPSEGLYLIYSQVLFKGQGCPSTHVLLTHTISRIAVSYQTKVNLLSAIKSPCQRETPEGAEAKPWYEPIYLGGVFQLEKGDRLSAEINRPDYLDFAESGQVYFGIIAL

Q: How did the “C-Terminal VD huTNFα Neutralization Assay IC50” value turn out when B1 was run?
A: 168 pM

Q: For B2, which “N-Terminal VD huTNFα Neutralization Assay IC50” value is on record?
A: 2 pM

Q: B3 was tested. Which “N-Terminal VD huTNFα Neutralization Assay IC50” value did it give?
A: 6 pM

Q: For B4, which “N-Terminal VD huTNFα Neutralization Assay IC50” value is on record?
A: 8 pM

Q: B5 was tested. Which “N-Terminal VD huTNFα Neutralization Assay IC50” value did it give?
A: 2 pM

Q: B6 was tested. Which “N-Terminal VD huTNFα Neutralization Assay IC50” value did it give?
A: 12 pM

Q: For B7, which “N-Terminal VD huTNFα Neutralization Assay IC50” value is on record?
A: 2 pM

Q: For B8, which “N-Terminal VD huTNFα Neutralization Assay IC50” value is on record?
A: 6 pM

Q: How did the “N-Terminal VD huTNFα Neutralization Assay IC50” value turn out when B9 was run?
A: 10 pM

Q: How did the “C-Terminal VD huTNFα Neutralization Assay IC50” value turn out when B10 was run?
A: 1620 pM

Q: How did the “C-Terminal VD huTNFα Neutralization Assay IC50” value turn out when B11 was run?
A: 130 pM

Q: B12 was tested. Which “C-Terminal VD huTNFα Neutralization Assay IC50” value did it give?
A: 112 pM
